From article PMC11589570, “Critical assessment of LC3/GABARAP ligands used for degrader development and ligandability of LC3/GABARAP binding pockets” (Nature Communications, 2024)

Legend:
Test in all cases: FP
[1] = target: GABARAPL2_(1-117) (human) (UniProt P60520)
LC3C_(1-126) (human) = LC3C_(1-126) (human) (UniProt Q9BXW4)
LC3A_(1-120) (human) = LC3A_(1-120) (human) (UniProt Q9H492)

Chain of LC3C_(1-126) (human) (Q9BXW4 1-126): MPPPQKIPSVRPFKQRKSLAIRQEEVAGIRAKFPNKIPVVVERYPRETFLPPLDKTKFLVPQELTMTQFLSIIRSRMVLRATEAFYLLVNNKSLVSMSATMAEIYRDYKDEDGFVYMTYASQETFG
Chain of GABARAPL2_(1-117) (human) (P60520 whole entry): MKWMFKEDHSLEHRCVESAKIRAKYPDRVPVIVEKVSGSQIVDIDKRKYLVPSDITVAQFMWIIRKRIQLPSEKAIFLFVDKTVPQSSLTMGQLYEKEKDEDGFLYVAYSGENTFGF

PCM1-LIR gave a Ki [1] of 26.2 µM, a Ki (LC3C_(1-126) (human)) of 84.3 µM and a Ki (LC3A_(1-120) (human)) of 179 µM.
